Earlier results as cited in paper PMC6277024.

Biological target: WRESAI hexapeptide

Kd: 10 nM
Substance: Tip-1 PDZ (from UniProt O14907)
